The target in test [1] is CD47 on mouse erythrocytes (wild type and SAD transgenic mice) (mouse) (UniProt Q61735). Nature of the test: cell-based or functional assay.
For test [2] the target is unchanged. Kind of test: flow cytometry of fresh mouse erythrocytes stained with the FITC-coupled antibody.
For test [3], the target named is T1, CD47 on mouse erythrocytes (wild type and SAD transgenic mice) (mouse, UniProt Q61735 19-303).
T1 sequence (looked up): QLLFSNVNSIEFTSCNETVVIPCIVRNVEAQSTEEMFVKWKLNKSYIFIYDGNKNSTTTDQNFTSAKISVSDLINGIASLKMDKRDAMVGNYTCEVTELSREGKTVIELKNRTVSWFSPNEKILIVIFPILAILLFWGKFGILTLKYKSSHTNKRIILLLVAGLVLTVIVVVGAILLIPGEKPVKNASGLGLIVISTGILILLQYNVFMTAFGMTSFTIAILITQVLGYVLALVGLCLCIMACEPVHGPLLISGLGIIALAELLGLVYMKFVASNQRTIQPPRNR
Kind of test: cell-based or functional assay.

Values joined by “and” are separate entries in the source; they are usually repeats but may differ in a detail not shown here. Identical values can stand only once.

For “Human recombinant TSP1 (thrombospondin-1) (from UniProt P07996 19-1170) (ligand)”, in test [1], the echinocytes among SAD mouse erythrocytes under shear is 50%; the proportion of echinocytes among wild type mouse erythrocytes under shear was > 10 fold and 30%.

In turn, “mouse-specific fluoroisothiocyanate (FITC)-coupled anti-CD47 monoclonal antibody (clone mIAP301; BD Biosciences)” returned a CD47 expression by FACS (percent) in test [2] of 85%.

In the case of RFYVVMWK [4N1-1 synthetic peptide (RFYVVMWK), TSP1 carboxyterminal peptide], in test [3], the “MP shedding by SAD mouse erythrocytes” value came to 40 fold, the “MP shedding by wild type mouse erythrocytes” value came to 16 fold and the “echinocytosis of wild type mouse erythrocytes” value worked out at 2 fold.

(Values after patent publication US20140044735A1 (ISNERM INSTITUT NATIONAL DE LA SANTE ET DE LA RECHERCHE …, published 2014).)
